How the values were obtained:
[1] = biological target: T1, recombinant PD-L1 protein (human PD-L1-his taq) (human, UniProt Q9NZQ7 19-238); test: SPR (Biacore T200), antibody captured by anti-human Fc on CM5 chip, PD-L1-his as analyte
T1 construct: also called human PD-L1-his taq protein; his-PDL1; not shown: his tag
Description: A series of dilutions of human PD-L1-his taq protein were injected over captured antibody for 3 mins at a flow rate of […]. The antigen was allowed to dissociate for 900s. All the experiments were carried out on a Biacore T200. Data analysis was carried out using Biacore T200 evaluation software.

[2] = biological target: T2, PD-L1 expressed on Raji cells (PDL1-Raji cells) (UniProt Q9NZQ7 19-290, limits assumed); test: FACS on PDL1-Raji cells, Alexa 488 anti-human IgG secondary antibody, MFI; the EC50 table has no unit, nM is taken from the x axis (Log [Conc.] / nM)
T2 construct: whole, on cells; also called mammalian expressed PD-L1
Description: After washing by FACS buffer (PBS with 2% FBS), the Alexa 488-anti-human IgG antibody was added to each well and incubated at RT for 1 hour. The MFI of Alexa 488 were evaluated by FACSAriaIII.

[3] = biological target: T3, IL7 receptor (IL7R) on human primary CD4+ T cells (human, UniProt P16871 21-459); test: FACS on human primary CD4+ T cells, 4 °C for 30 min, PE anti-human Fc secondary antibody, MFI; fit value printed for a nearly flat control curve; the EC50 column has no unit, nM is taken from the x axis (Log [Conc.] / nM)
T3 construct: whole, on cells; Native receptor on cells; also called surface IL7R; CD127 (IL7Ra)
T3 sequence (looked up): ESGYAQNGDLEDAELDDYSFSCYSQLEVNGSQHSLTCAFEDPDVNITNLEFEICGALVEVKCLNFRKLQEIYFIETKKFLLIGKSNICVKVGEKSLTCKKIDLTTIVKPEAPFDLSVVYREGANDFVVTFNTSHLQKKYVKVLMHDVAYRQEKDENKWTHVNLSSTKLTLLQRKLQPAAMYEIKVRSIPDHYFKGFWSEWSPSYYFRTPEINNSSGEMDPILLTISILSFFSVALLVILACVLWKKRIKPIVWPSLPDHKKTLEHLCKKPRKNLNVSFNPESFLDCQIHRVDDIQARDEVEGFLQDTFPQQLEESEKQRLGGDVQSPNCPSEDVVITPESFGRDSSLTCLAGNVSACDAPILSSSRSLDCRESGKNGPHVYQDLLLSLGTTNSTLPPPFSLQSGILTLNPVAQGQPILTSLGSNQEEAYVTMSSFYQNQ
Description: PE-conjugated anti-human Fc secondary antibody were used to detect the fusion molecules that bound to the IL7R of CD4⁺ T cells by FACS. […] For ligation-mediated receptor internalization assay, human primary CD4⁺ T cells were cocultured with fusion molecules at 37° C. for 15 mins. PE-cy7-conjugated-anti-CD127 (IL7Ra) antibody was used to detect the surface IL7R by FACS.

T1 sequence (Q9NZQ7 19-238 limits assumed): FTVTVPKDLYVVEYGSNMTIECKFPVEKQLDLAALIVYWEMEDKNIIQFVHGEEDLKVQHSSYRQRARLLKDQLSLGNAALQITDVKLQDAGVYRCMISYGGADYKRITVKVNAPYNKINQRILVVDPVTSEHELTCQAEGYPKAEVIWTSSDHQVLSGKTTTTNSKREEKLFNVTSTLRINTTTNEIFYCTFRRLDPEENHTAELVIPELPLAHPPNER
T2 sequence (Q9NZQ7 19-290 limits assumed): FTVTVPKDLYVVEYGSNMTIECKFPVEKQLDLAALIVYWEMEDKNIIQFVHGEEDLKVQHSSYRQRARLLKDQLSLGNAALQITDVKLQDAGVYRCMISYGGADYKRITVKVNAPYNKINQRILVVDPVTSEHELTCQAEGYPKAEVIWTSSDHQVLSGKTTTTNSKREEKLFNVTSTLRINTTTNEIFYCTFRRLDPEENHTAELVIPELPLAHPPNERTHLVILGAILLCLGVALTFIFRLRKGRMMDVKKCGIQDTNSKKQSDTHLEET

B1: Anti-PDL1 mAb (antibody, V domains shown)
VH: EVQLVESGGGLVQPGGSLRLSCAASGFTFSSYDMSWVRQAPGKSLEWVATISDAGGYIYYSDSVKGRFTISRDNAKNSLYLQMNSLRDEDTAVYICAREFGKRYALDYWGQGTTVTVSS
VL: DIQMTQSPSSLSASVGDRVTITCKASQDVTPAVAWYQQKPGKAPKLLIYSTSSRYTGVPSRFSGSGSGTDFTFTISSLQPEDIATYYCQQHYTTPLTFGQGTKLEIK
notes: also called anti-PDL1 monoclonal antibody; anti-PDL1 antibody
Which Kd [1] does the source give for B1 here?
Its Kd is 2.09 nM.

What about the koff [1] of the same binder?
The koff was 0.000178 s⁻¹.

What about the kon [1] of the same binder?
The kon was 85000 M⁻¹ s⁻¹.

What about the EC50 [2] of the same binder?
The EC50 was 7.99 nM.

What about the EC50 [3] of the same binder?
Its EC50 is 35 nM.

— US20190352405A1 (I MAB BIOPHARMA US, published 2019)
